US20180111991A1, “MODULATORS OF ACTIVIN AND METHODS FOR MODULATING IMMUNE RESPONSES AND T FOLLICULAR HELPER CELLS” (LA JOLLA INSTITUTE FOR ALLERGY AND IMMUNOLOGY, priority 2014, published 2018)

Key:
SMAD2/3 [1] = assay: Analysis of phosphorylated SMAD2/3 in blood naïve CD4 T cells; type: cell-based, human; conditions: activin A + SB 431542 (10 μM)
Excerpt: (§1) Fresh PBMCs and tonsil mononuclear cells were serum-starved over night in AIM-V medium. […] Following stimulation, the cells were fixed in BD Phosflow™ Fix Buffer I (BD Biosciences), then permeabilized using BD Phosflow™ Perm Buffer III (BD Biosciences) following manufacture's instruction.

SMAD2/3 [2] = assay: Analysis of phosphorylated SMAD2/3 in tonsil CD4 T cells; type: cell-based, human; conditions: tonsil naïve CD4 T cells, activin A+Galunisertib
Excerpt: as §1

ALK4 = target: T1, ALK4 (Homo sapiens, UniProt P36896); assay: SMAD2/3 inhibition experiments (ALK4 inhibitors) in Tfh differentiation; type: cell-based; conditions: activin A+IL-12, 5 days, vs vehicle (DMSO)
T1 construct: endogenous in cells; host or cells: primary human naive CD4+ T cells from PBMCs
T1 sequence (P36896 24-505): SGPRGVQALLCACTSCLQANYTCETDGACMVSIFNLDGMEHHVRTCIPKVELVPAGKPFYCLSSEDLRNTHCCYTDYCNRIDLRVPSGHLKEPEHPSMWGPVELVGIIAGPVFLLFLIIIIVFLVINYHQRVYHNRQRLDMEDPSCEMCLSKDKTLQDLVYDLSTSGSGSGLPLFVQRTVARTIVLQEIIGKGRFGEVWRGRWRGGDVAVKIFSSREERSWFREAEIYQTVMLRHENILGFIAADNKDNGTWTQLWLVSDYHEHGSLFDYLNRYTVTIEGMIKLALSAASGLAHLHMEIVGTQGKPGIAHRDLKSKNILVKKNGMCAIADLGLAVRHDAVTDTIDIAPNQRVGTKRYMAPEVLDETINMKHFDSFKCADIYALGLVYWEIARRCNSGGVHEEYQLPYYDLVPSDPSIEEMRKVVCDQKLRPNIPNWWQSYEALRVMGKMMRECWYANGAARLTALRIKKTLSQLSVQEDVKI

human naïve CD4 T cells [3] = assay: Screening of secretomics recombinant proteins for Tfh marker induction; type: cell-based; conditions: secretomics protein screen, anti-CD3/CD28 beads, 5 days, automated FACS
Experimental: FIG. 1A-D: Inhibin beta A (INHBA) emerged from the screen as potent regulator of human Tfh differentiation. (A) Schematic of primary screen. Purified human naïve CD4 T cells from a leukapheresis donor were stimulated by anti-CD3/CD28 beads on 384 well plates on day 0. The GNF secretomics recombinant proteins were added at the beginning of the stimulation. Each secretomics protein was tested in duplicate. After 5 days of in vitro culture, cells were evaluated by automated FACS analysis for the expression of Tfh signature markers, including CXCR5 and PD-1. (B) Primary screen results. Relative enrichment of PD-1^+CXCR5^+ cell induction is reported as Z score for each recombinant protein. INHBA gene product is shown in red. (C) CXCR5 and PD-1 expression from repeat experiment in which INHBA gene product was tested again for its capacity to induce Tfh-like differentiation. (D) Confocal microscopy of INHBA expression in human tonsils. Tonsil sections were stained with anti-INHBA (red) anti-BCL6 (blue) and anti-CD3 (green) Abs. An overlay from one donor representative of six is shown on the left panel. […]
Naïve CD4^+ T cells were isolated from leukapheresis-derived mononuclear cells via CliniMACS negative selection (Miltenyi Biotec). […] Induction of CXCR5 and PD-1 was assessed after 5 days of in vitro culture using automated FACS acquisition via HTS on LSR Fortessa (BD Biosciences). For each 384 well plate, mean and standard deviation of PD-1^+CXCR5^+ cell frequency induced by each individual recombinant proteins was determined and used to calculate the Z score. Z scores of replicate plates were analyzed independently.
To discover novel regulators of human Tfh cell differentiation, we performed an unbiased high throughput screen of a human extracellular proteome library consisting of over 2000 human proteins predicted or known to be cytokines, chemokines, morphogens, costimulatory receptors, or single pass transmembrane molecules^19. […] Following 5 days, expression of the Tfh signature markers CXCR5 and PD-1 were measured on the cells by flow cytometry, in an automated fashion. […]

human naïve CD4 T cells [4] = assay: In vitro Tfh differentiation, PD-1 and CXCR5 expression by FACS; type: cell-based; conditions: for synergy with activin A on CXCR5 and PD-1 expression: IL-12 family cytokine added to activin A, serum-free conditions
Experimental: (§2) For surface staining, primary-staining panels used for phenotypic analysis or for cell sorting known in the art were used. For the intranuclear staining: cells were treated with the FoxP3 Fixation/Permeabilization kit (eBioscience) and stained in Permeabilization buffer (eBioscience). For cytokine staining: day 3 or day 5 in vitro differentiated cells (specified in the main text or in figure legends) cells were stimulated for 5 hours at 37° C. with Phorbol 12-myristate 13-acetate (PMA, 25 ng/ml) and Ionomycin (1 μg/ml) in the presence of Brefeldin A (5 μg/ml). Cells were fixed with PBS 2% FBS, 1% PFA and permeabilized with PBS 2% FBS, 0.5% Saponin (from quillaja bark, Sigma-Aldrich). Samples were analyzed on a LSR Fortessa Cell Analyzer (BD, Bioscience). Flow cytometry data were analyzed with FlowJo (Tree Star). For cell sorting, cells were sorted using sorted using a FACS Aria (BD, Bioscience).
Unless differently specified, naïve CD4^+ T cells were enriched from PBMCs by magnetic bead negative selection with the Naïve CD4^+ T Cell Isolation Kit (Stem Cell Technologies). Purity (CD4^+CD45RA^+) was 90% or higher. Cells (7.5×10^4 cells/well) were activated by Dynabeads Human T-Activator CD3/CD28 (2 μl/well, Life Technologies) and cultured with recombinant human/mouse/rat activin A (50 ng/ml or 100 ng/ml), recombinant human IL-12 (5 ng/ml), recombinant human TGFβ (1 ng/ml), recombinant human IL-23 (10 ng/ml) or recombinant human IL-35 (10 ng/ml) in the presence of and recombinant human IL-7 (4 ng/ml) in AIM-V medium (Life Technologies). All cytokines were from R&D System and Peprotech. The 14 kDa mature human beta A chain of human activin A shares 100% amino acid sequence identity with bovine, feline, mouse, porcine, and rat beta A. Phenotype was quantified after 3 or 5 days, as specified in the main text of Figure legends. Similar results were obtained when using Treg-depleted FACS sorted naïve CD4 T cells, in which cells were sorted from total PBMCs by flow cytometry as CD19^−CD8^−CD14^−CD16^− CD4^+CD45RO^−CD25^− cells. For experiments quantifying supernatant CXCL13 concentration, cells were activated by plate-bound anti-human CD3 (5 μg/ml, BD) and ICOS-L (5 μg/ml, recombinant human B7-H2, R&D). CXCL13 concentrations were determined via human CXCL13 DuoSet ELISA (R&D) on supernatants harvested after 5 days of in vitro culture. For blocking experiments, cells were cultured with anti-activin A blocking mAb (5 μg/ml, clone 69403, R&D), anti-TGFβ mAb (100 μg/ml, clone 1D11.16.8, BioXcell), or equivalent concentration of mouse IgG1 isotype mAb (BioXcell). For blockade of IL-2, cells were cultured with anti-IL-2 blocking mAb (10 μg/ml, clone 5334, R&D) or mouse IgG1 isotype mAb (BioXcell).

human naïve CD4 T cells [5] = assay: Intracellular cytokine staining after PMA/Ionomycin restimulation; type: cell-based; conditions: cells cultured with IL-12, PMA/Ionomycin re-stimulation
Experimental: as §2

[6] = system: autologous memory B cells; assay: T-B co-culture, B cell help; type: cell-based, human; conditions: T-B co-cultures

NC(=O)c1ccc(-c2nc(-c3ccc4c(c3)OCO4)c(-c3ccccn3)[nH]2)cc1 [SB 431542, reference compound]
reduction of activin A-mediated SMAD2/3 phosphorylation (SMAD2/3 [1]): strong reduction

Cc1cccc(-c2nn3c(c2-c2ccnc4ccc(C(N)=O)cc24)CCC3)n1 [Galunisertib, reference compound]
inhibition of activin A-induced SMAD2/3 phosphorylation (SMAD2/3 [2]): abolished
suppression of PD-1+CXCR5+ cell generation in response to activin A (ALK4): potent suppression

B1: product of the Inhibin beta A gene (INHBA): secreted recombinant protein from the secretomics collection; forms the cytokine activin A as a homodimer (protein, UniProt P08476 311-426, looked up)
Inhibin beta A chain: GLECDGKVNICCKKQFFVSFKDIGWNDWIIAPSGYHANYCEGECPSHIAGTSGSSLSFHSTVINHYRMRGHSPFANLKSCCVPTKLRPMSMLYYDDGQNIIKKDIQNMIVEECGCS
modifications: Inhibin beta A chain
induction of CXCR5 and PD-1 expression (PD-1+CXCR5+ cells) (human naïve CD4 T cells [3]): most potent inducer of CXCR5 and PD-1

B2: IL-12: recombinant human cytokine (protein, UniProt P29459 23-219; P29460 23-328, looked up)
Interleukin-12 subunit alpha: RNLPVATPDPGMFPCLHHSQNLLRAVSNMLQKARQTLEFYPCTSEEIDHEDITKDKTSTVEACLPLELTKNESCLNSRETSFITNGSCLASRKTSFMMALCLSSIYEDLKMYQVEFKTMNAKLLMDPKRQIFLDQNMLAVIDELMQALNFNSETVPQKSSLEEPDFYKTKIKLCILLHAFRIRAVTIDRVMSYLNAS
Interleukin-12 subunit beta: IWELKKDVYVVELDWYPDAPGEMVVLTCDTPEEDGITWTLDQSSEVLGSGKTLTIQVKEFGDAGQYTCHKGGEVLSHSLLLLHKKEDGIWSTDILKDQKEPKNKTFLRCEAKNYSGRFTCWWLTTISTDLTFSVKSSRGSSDPQGVTCGAATLSAERVRGDNKEYEYSVECQEDSACPAAEESLPIEVMVDAVHKLKYENYTSSFFIRDIIKPDPPKNLQLKPLKNSRQVEVSWEYPDTWSTPHSYFSLTFCVQVQGKSKREKKDRVFTDKTSATVICRKNASISVRAQDRYYSSSWSEWASVPCS
synergy with activin A on CXCR5 and PD-1 expression (human naïve CD4 T cells [4]): enhanced
IL-21 production (human naïve CD4 T cells [5]): capable of producing IL-21
contribution to B cell helper activity of in vitro differentiated Tfh cells [6]: driven entirely by IL-12

B3: IL-23: recombinant human cytokine of the IL-12 cytokine family (protein, UniProt Q9NPF7 20-189; P29460 23-328, looked up)
Interleukin-23 subunit alpha: RAVPGGSSPAWTQCQQLSQKLCTLAWSAHPLVGHMDLREEGDEETTNDVPHIQCGDGCDPQGLRDNSQFCLQRIHQGLIFYEKLLGSDIFTGEPSLLPDSPVGQLHASLLGLSQLLQPEGHHWETQQIPSLSPSQPWQRLLLRFKILRSLQAFVAVAARVFAHGAATLSP
Interleukin-12 subunit beta: IWELKKDVYVVELDWYPDAPGEMVVLTCDTPEEDGITWTLDQSSEVLGSGKTLTIQVKEFGDAGQYTCHKGGEVLSHSLLLLHKKEDGIWSTDILKDQKEPKNKTFLRCEAKNYSGRFTCWWLTTISTDLTFSVKSSRGSSDPQGVTCGAATLSAERVRGDNKEYEYSVECQEDSACPAAEESLPIEVMVDAVHKLKYENYTSSFFIRDIIKPDPPKNLQLKPLKNSRQVEVSWEYPDTWSTPHSYFSLTFCVQVQGKSKREKKDRVFTDKTSATVICRKNASISVRAQDRYYSSSWSEWASVPCS
synergy with TGFβ or activin A, induction of CXCR5+ or CXCR5+PD1+ cells (human naïve CD4 T cells [4]; FIG. 15, interleukin combined with TGFβ or activin A): synergizes with TGFβ or activin A but less potently than IL-12
synergy with activin A on CXCR5 and PD-1 expression (human naïve CD4 T cells [4]): modest but detectable synergistic activity with activin A
